Assay results from patent US20170007716A1 (ONCOMATRYX BIOPHARMA S L, published 2017).

What was measured:
[1] = molecular target: T1, human FAP on HT1080 cells (HT1080-huFAP, stable transfectants) (human, UniProt Q12884 1-760); test: cell-based or functional assay
T1 sequence: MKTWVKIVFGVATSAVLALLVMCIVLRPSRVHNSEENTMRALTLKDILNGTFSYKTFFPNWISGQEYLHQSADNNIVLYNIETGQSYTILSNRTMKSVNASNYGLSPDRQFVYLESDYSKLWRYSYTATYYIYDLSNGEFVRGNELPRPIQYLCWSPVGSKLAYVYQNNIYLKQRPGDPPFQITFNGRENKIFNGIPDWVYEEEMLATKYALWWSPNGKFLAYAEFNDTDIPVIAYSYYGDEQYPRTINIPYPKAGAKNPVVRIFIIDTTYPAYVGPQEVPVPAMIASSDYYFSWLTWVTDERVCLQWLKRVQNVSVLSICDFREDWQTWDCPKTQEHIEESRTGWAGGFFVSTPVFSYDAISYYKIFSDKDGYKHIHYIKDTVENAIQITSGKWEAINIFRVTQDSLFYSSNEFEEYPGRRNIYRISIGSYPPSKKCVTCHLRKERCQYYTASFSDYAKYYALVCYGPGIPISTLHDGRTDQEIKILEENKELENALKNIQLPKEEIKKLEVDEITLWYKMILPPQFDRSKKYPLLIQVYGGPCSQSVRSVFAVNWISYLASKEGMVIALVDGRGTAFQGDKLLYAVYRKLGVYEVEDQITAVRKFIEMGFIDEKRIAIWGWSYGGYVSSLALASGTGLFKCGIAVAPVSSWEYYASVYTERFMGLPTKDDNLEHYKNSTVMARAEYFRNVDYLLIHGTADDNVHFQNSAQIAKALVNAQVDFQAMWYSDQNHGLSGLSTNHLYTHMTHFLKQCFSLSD

[2] = molecular target: T1, human FAP on HT1080 cells …; test: cell-based or functional assay; remark: listed apart in the source
[3] = molecular target: T2, mouse FAP on HT1080 cells (HT1080-moFAP) (mouse, UniProt P97321 1-761); test: flow cytometry, HT1080-moFAP cells
T2 construct: Murine FAP on stably transfected HT1080 cells; also called murine FAP
T2 sequence: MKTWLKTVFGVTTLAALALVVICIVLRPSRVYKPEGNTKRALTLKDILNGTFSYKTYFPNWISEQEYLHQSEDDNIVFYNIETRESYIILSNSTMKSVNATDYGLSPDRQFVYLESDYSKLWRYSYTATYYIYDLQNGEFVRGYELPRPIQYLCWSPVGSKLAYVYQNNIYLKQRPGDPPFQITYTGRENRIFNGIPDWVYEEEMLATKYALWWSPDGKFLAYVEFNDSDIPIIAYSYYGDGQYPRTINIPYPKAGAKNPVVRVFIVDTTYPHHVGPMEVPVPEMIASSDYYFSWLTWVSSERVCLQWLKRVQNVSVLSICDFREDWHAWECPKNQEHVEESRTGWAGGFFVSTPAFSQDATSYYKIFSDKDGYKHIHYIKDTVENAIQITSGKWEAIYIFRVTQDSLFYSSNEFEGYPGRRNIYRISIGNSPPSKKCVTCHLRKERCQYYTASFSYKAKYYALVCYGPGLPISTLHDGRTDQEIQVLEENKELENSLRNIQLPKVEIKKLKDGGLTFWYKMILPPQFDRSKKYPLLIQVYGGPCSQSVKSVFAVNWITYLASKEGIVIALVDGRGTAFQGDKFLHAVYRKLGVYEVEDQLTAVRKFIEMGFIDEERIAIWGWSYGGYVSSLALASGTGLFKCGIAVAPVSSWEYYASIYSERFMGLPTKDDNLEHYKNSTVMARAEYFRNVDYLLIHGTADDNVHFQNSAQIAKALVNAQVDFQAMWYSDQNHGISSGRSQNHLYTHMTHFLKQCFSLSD

[4] = molecular target: T1, human FAP on HT1080 cells …; test: flow cytometry, HT1080-huFAP cells
[5] = molecular target: T3, recombinant human FAP (extracellular region aa 26-760; R&D systems) (human, UniProt Q12884 26-760); test: ELISA, rhFAP
T3 construct: also called rhFAP; recombinant FAP
T3 sequence: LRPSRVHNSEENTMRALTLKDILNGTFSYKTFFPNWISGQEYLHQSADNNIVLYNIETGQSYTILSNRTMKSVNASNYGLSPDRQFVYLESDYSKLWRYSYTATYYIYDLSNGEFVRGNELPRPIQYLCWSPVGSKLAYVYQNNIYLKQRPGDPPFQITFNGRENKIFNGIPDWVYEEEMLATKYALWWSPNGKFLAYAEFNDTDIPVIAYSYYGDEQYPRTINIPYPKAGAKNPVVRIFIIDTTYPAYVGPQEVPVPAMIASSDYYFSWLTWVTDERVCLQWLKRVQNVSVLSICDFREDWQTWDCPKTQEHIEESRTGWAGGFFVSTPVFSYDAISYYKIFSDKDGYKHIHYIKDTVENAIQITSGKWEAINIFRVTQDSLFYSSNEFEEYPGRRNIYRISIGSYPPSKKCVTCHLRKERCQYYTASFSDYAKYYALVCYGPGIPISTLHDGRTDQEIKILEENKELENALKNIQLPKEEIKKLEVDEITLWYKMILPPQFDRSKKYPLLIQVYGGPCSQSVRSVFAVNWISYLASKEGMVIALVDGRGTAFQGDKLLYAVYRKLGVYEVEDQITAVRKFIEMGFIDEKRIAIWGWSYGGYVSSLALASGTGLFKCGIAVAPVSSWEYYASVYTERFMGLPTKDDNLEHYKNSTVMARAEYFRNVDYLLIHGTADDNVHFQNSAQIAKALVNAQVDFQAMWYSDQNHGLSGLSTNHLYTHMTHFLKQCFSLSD

[6] = molecular target: T3, recombinant human FAP (extracellular …); test: QCM (Attana A100), rhFAP; KD2
[7] = molecular target: T3, recombinant human FAP (extracellular …); test: QCM (Attana A100), rhFAP; KD1
[8] = molecular target: T2, mouse FAP on HT1080 cells (HT1080-moFAP); test: FACS, HT1080-moFAP cells
[9] = molecular target: T1, human FAP on HT1080 cells …; test: FACS, HT1080-huFAP cells
[10] = molecular target: T3, recombinant human FAP (extracellular …); test: ELISA, recombinant FAP coated

B1: Anti-FAP hu36-IgG1-recNgA immunotoxin conjugate HPS131-001-1 (antibody)
heavy: QVQLVQSGAEVKKPGASVKVSCKASGYTFTENIIHWVRQAPGQGLEWMGWFHPGSGSIKYNEKFKDRVTMTADTSTSTVYMELSSLRSEDTAVYYCARHGGTGRGAMDYWGQGTLVTVSSASTKGPSVFPLAPSSKSTSGGTAALGCLVKDYFPEPVTVSWNSGALTSGVHTFPAVLQSSGLYSLSSVVTVPSSSLGTQTYICNVNHKPSNTKVDKKVEPKSCDKTHTCPPCPAPPVAGPSVFLFPPKPKDTLMISRTPEVTCVVVDVSHEDPEVKFNWYVDGVEVHNAKTKPREEQYNSTYRVVSVLTVLHQDWLNGKEYKCKVSNKGLPSSIEKTISKAKGQPREPQVYTLPPSRDELTKNQVSLTCLVKGFYPSDIAVEWESNGQPENNYKTTPPVLDSDGSFFLYSKLTVDKSRWQQGNVFSCSVMHEALHNHYTQKSLSLSPGK
light: DIQMTQSPSSLSASVGDRVTITCRASKSVSTSAYSYMHWYQQKPGKAPKLLIYLASNLESGVPSRFSGSGSGTDFTLTISSLQPEDFATYYCQHSRELPYTFGQGTKLEIKRTVAAPSVFIFPPSDEQLKSGTASVVCLLNNFYPREAKVQWKVDNALQSGNSQESVTEQDSKDSTYSLSSTLTLSKADYEKHKVYACEVTHQGLSSPVTKSFNRGEC
chain: MIDYPSVSFNLDGAKSATYRDFLSNLRKTVATGTYEVNGLPVLRRESEVQVKSRFVLVPLTNYNGNTVTLAVDVTNLYVVAFSGNANSYFFKDATEVQKSNLFVGTKQNTLSFTGNYDNLETAANTRRESIELGPSPLDGAITSLYHGDSVARSLLVVIQMVSEAARFRYIEQEVRRSLQQATSFTPNALMLSMENNWSSMSLEIQQAGNNVSPFFGTVQLLNYDHTHRLVDNFEELYKITGIAILLFRCSSPSND
modifications: single cysteine in a hindered disulphide bond to the SMPT-derivatised antibody; derivatised with SMPT on amino groups; disulphide link to recNgA
- cytotoxicity on HT1080-FAP cells (cell viability), IC50 [1]: 5000 nM

B2: ADC-558 (HPS-157-039-005), anti-FAP hu36:TAM558 ADC (antibody, V domains shown)
VH: QVQLVQSGAEVKKPGASVKVSCKASGYTFTENIIHWVRQAPGQGLEWMGWFHPGSGSIKYNEKFKDRVTMTADTSTSTVYMELSSLRSEDTAVYYCARHGGTGRGAMDYWGQGTLVTVSS
VL: DIQMTQSPSSLSASVGDRVTITCRASKSVSTSAYSYMHWYQQKPGKAPKLLIYLASNLESGVPSRFSGSGSGTDFTLTISSLQPEDFATYYCQHSRELPYTFGQGTKLEIKR
modifications: cytolysin-linker TAM558 on cysteine residues (not site-specific); cytolysin-linker TAM558 (vcPABA linker in R4 with 3 ethylene glycol spacer) on cysteine residues (not site-specific), DAR 3.92 for the whole antibody
- IC50 in Proliferation Arrest Assay (nM), HT1080-FAP [2]: 0.96 nM
- specificity ratio between FAP(+) and FAP(-) HT1080 cells (cytotoxic activity) [1]: 500

B3: humanized anti-FAP IgG1 hu36 (hu36-IgG1) (antibody, V domains shown)
VH: QVQLVQSGAEVKKPGASVKVSCKASGYTFTENIIHWVRQAPGQGLEWMGWFHPGSGSIKYNEKFKDRVTMTADTSTSTVYMELSSLRSEDTAVYYCARHGGTGRGAMDYWGQGTLVTVSS
VL: DIQMTQSPSSLSASVGDRVTITCRASKSVSTSAYSYMHWYQQKPGKAPKLLIYLASNLESGVPSRFSGSGSGTDFTLTISSLQPEDFATYYCQHSRELPYTFGQGTKLEIKR
notes: Full-length humanized IgG1/kappa, gamma1* = deficient for ADCC and CDC; made in CHO cells; also called anti-hu/moFAP hu36; naked anti-FAP hu36-IgG1
- EC50 [3]: 0.25 nM
- EC50 [4]: 0.33 nM
- EC50 [5]: 3 nM
- Kd [6]: 0.4 nM
- Kd [7]: 218 nM
- EC50 [8]: 0.2 nM
- EC50 [9]: 0.3 nM
- EC50 [10]: ~5 nM
